Source: the nanobody polyreactivity screen of Harvey et al. (2022)

Assay: yeast display, Sf9 membrane polyspecificity reagent, FACS + sequencing; frameworks hold sequencing errors
Procedure, shortened: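 Using colony PCR, genes from sorted yeast display clones were amplified, then sequenced on MiSeq at 2 × 250 and filtered by CDR length. The clones had been stained with 10% biotinylated, detergent-solubilized Sf9 membrane reagent for 1 hour at 4 °C and sorted by FACS into low and high (top ~1%) gates on anti-HA and streptavidin fluorescence. Polyreactivity labels come from the gate of origin.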

Sequence	polyreactivity (PSR sort gate)
QVQLVDSGGGLVQAGCSLRLSCAASGRTFSNYAMGWYRQAPGKDRELVAAISWRGGSTYYADSVKGRFTISRDNAKNTVYLQMTSLKPEDTAVYYCAALPRYALGEDYWGQGTQVTVSS	high polyreactivity
QVQLVDSGGGLVQAGGILRLSCAASGRTISSYAMGWYRQAPGKERELVAAITRTGGRTYYAYSVKGRFTISRDNAKNTVYLQMNSLKPEDTAVYYCAATGIRYGVKYYYWGQGTQVTVSS	high polyreactivity
QVQLVDSGGGLVQAGGRLLLSCAASGRTFRKYTMGWYREAPGKERELVAAISSRGGSTYYADSVKGRFTISRDNAKYTVYLQMNSMKPEDTAVYYCDTDYITPSSEGDYWGQGTQVTVSS	high polyreactivity
QVQLVDSGGGLVQAGGRLRLSCAASGRTFVRYAMGWYRQAPGKERELVATIRWRGGSTYYADSVKGRFTISRDNAKNTVYLQMNSLKPDDTAVYYCAARRYSSGLTDDYWGQGTQVTVSS	high polyreactivity
QVQLVDSGGGLVQAGGRLRLSCAASGSTFIYNAMGWYRQAPGKERELVASISTSGGSTYYADSVKGRFTISRDNAKNTVYLQMNSLKPEDTAVYYCAKRYFFKYGYWGQGTQVTVSS	high polyreactivity
QVQLVDSGGGLVQAGGRLRLSCAASGVTIQPNARGWYRQAPGKERELVPSISWSDGSTYYADSVKGRFTISRDNAKNTVFLQMNSLKPEDTAVYYCAADFTYYDPPYRDYNYESWGQGTQVTVSS	low polyreactivity
QVQLVDSGGGLVQAGGSLRLICAASGFIFGKYAMGWYRQAPGKEWEFVAAITGNGGSTYYADSVKGRFTISRDNAKNTVYLQMNSLKPEDTAVYYCNADRGYRRRSGMDYWGQGTQLTVSS	low polyreactivity
QVQLVDSGGGLVQAGGSLRLRCAASGRIFWYYAMGWYRQAPGKERELVASITRGNNTYYADSVKGRFTISRDNAKNTVYLQMNSLKPEVTAVFYCAKRYIYSYYWGQGTQVTVSS	high polyreactivity
QVQLVDSGGGLVQAGGSLRLSCAASGFIFRSYALGWYRQAPGKERELVAAISRRGGSTYYADSVKGRFTISRDHAKNTVYLQMNSLKPEDTAVYYCAAESRGVYGYAQSDFWGQGTQVTVSS	high polyreactivity
QVQLVDSGGGLVQAGGSLRLSCAASGFIFSSYAMGWYRQAPGKERELVAAITRSGGRTYYADSVKGRFTISRDNAKNTVYLQMNSLKQEDTAVYYCAAPNGAGYRGDYWGQGTQVTVSS	high polyreactivity
QVQLVDSGGGLVQAGGSLRLSCAASGFTFAYYALGWYRPAPGKEREFVAAITSGGRTNYADSVKGRFTISRDNAKNTVYLQMNSLKPEDTAVYYCAKYRRGGSRHYSVFNHDYWGQGTQVTVSS	high polyreactivity
QVQLVDSGGGLVQAGGSLRLSCAASGFTFAYYAMGWYRQAPGKERELVAGISWRGGRTYYADSVKGRFTISRDNAKNTVYLQMNSLKPEDTAVYYCAKQPGNFGRFDYWGQGTKVTVSS	high polyreactivity
QVQLVDSGGGLVQAGGSLRLSCAASGFTFDGYAMGWYRQAPGQEREFVATISLSGGSTYYADSVKGRCTISRDNAKNTVYLQMNSLNPEDTAVYYCGKDTQPYLIDGFEYWGQGTQVTVSS	low polyreactivity
QVQLVDSGGGLVQAGGSLRLSCAASGFTFQRKAMGWYRQATGKERELVAAISKSGGSTYYADSVKARFTISRDNEKNTVYLEMNSLKPEDTAVYYCASTALFSGLTKRYYWGQGTQVTVSS	high polyreactivity
QVQLVDSGGGLVQAGGSLRLSCAASGFTFQYYSMGWYRQATGKERELVADISSSGDSTNYADSVKGRFTISRDTAKNTVYLQMNSLKPEDTAVYYCAADYSQPNFEYYYWGQGTQVTVSS	low polyreactivity
QVQLVDSGGGLVQAGGSLRLSCAASGGIFYHNAMGWYRQAPGKERELVAAISGRGGRTYYADSVKGRFTISRDNAKNTVYLQMNSLKPEDTAVYYCYADQYKDFDYWGQGTQVTVSS	low polyreactivity
QVQLVDSGGGLVQAGGSLRLSCAASGIIFSDYAMGWYRKAPGIERELVAAISRNGGSTYYADSVKGRFTISRDIAKYTVYLQMNSLKPEDTAVYYCAATRRYRYNWGQGTQVTVSS	high polyreactivity
QVQLVDSGGGLVQAGGSLRLSCAASGITFDHYAMGWSRQAPGKEREFVAAIDDIGGDTYYADSVKGRFTISRDNAKNTVYLQMNSLKPEATAVYYCAADYGYYSRFYYWGQGTQVTVSS	low polyreactivity
QVQLVDSGGGLVQAGGSLRLSCAASGITFYDYTMGWYRQAPGKERELVAAITSSGVSTYYADSVKGRFTISRDNAKNTVYLQMNSLKPEDTAVYYCAADLYEDPNGEDDYWGQGTQVTVSS	low polyreactivity
QVQLVDSGGGLVQAGGSLRLSCAASGITFYYYAMGSYRQAPGKETELVAAISSRGGSTYYADSVKGRFTISRDNAKNTVYFQMNSLKQEDTAVYYCAADYYSSYYSSYIKSYYWGLGTQVTVSS	high polyreactivity
QVQLVDSGGGLVQAGGSLRLSCAASGITLSWYAKGWYRQAPGQERELVAGISGRGGRTYYADSVKGRFTISRDNAKNTVYLQMNSLKPEDTAVYYCAAVSPGYRSYDYWGQGTQVTVSS	high polyreactivity
